# Data reported in patent US20150368338A1 (Janssen / Centocor, published 2015).
# Where a chain is given by its changes, count along the chain named.
# T1: IFN-αF (human, UniProt P01568 24-189)
# T1 chain: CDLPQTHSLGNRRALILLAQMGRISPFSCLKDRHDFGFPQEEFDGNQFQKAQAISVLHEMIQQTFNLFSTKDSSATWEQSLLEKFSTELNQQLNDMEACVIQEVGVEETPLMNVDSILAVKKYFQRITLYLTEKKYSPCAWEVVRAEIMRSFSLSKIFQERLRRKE
# B1: IFWM3331 (antibody, IgG1, V domains shown)
# VH: EVQLVQSGAEVKKPGESLKISCKGSGYSFTSYWIGWVRQMPGKGLEWMGIIDPSDSDTRYSPSFQGQVTISADKSISTAYLQWSSLKASDTAMYYCARHPGLNWAPDFDYWGQGTLVTVSS
# VL: DIQMTQSPSSLSASVGDRVTITCRASQSIDNSYLNWYQQKPGKAPKLLIYGASSLQSGVPSRFSGSGSGTDFTLTISSLQPEDFATYYCQQGWDWPLTFGQGTKVEIK
# B2: IFWM3332 (antibody, IgG1, V domains shown)
# VH: B1 VH
# VL: B1 VL with D30A, S32T, Y33N, Y50H, G51W, G92W, W93Y, W95N
# B3: IFWM3421 (antibody, IgG1, V domains shown)
# VH: B1 VH
# VL: DIQMTQSPSSLSASVGDRVTITCRASQSIDGFLNWYQQKPGKAPKLLIYFASSLQSGVPSRFSGSGSGTDFTLTISSLQPEDFATYYCQQSYDLPITFGQGTKVEIK
# B4: IFWM3423 (antibody, IgG1, V domains shown)
# VH: B1 VH with N103A
# VL: B3 VL
# B5: IFWM371 (antibody, IgG1, V domains shown)
# VH: B1 VH
# VL: not shown
# B6: IFWM3304 (antibody, IgG1, V domains shown)
# VH: B1 VH
# VL: B3 VL with D30G, G31S, F32A, L94F, I96L
# B7: IFWM3418 (antibody, IgG1, V domains shown)
# VH: B1 VH
# VL: B3 VL with D30A, F50Y, D93S, L94I
# notes: mAb; IgG1/kappa said of the parent and of selected mAbs; also called IFWB3153
# B8: IFWM3419 (antibody, IgG1, V domains shown)
# VH: B1 VH with N103A
# VL: B3 VL with D30A, F50Y, D93S, L94I
# notes: mAb; IgG1/kappa said of the parent and of selected mAbs; also called IFWB3154
# B9: IFWM3420 (antibody, IgG1, V domains shown)
# VH: B1 VH with R59A
# VL: B3 VL with D30A, F50Y, D93S, L94I
# notes: mAb; IgG1/kappa said of the parent and of selected mAbs; also called IFWB3155
# B10: IFWM3370 (antibody, IgG1, V domains shown)
# VH: B1 VH with R59A
# VL: B1 VL
# notes: mAb; IgG1/kappa said of the parent and of selected mAbs; also called IFWB3105
# B11: IFWM3371 (antibody, IgG1, V domains shown)
# VH: B1 VH with R59A
# VL: B1 VL with D30A, S32T, Y33N, Y50H, G51W, G92W, W93Y, W95N
# notes: mAb; IgG1/kappa said of the parent and of selected mAbs; also called IFWB3106
# B12: IFWM3372 (antibody, IgG1, V domains shown)
# VH: B1 VH with R59A
# VL: B1 VL with S32N, Y33N, G51A, W93Y
# notes: mAb; IgG1/kappa said of the parent and of selected mAbs; also called IFWB3107
# B13: IFWM3375 (antibody, IgG1, V domains shown)
# VH: B1 VH with R59A
# VL: B1 VL with D30R, S32N, G51A, W93Y, W95T
# notes: mAb; IgG1/kappa said of the parent and of selected mAbs; also called IFWB3110
# B14: IFWM3376 (antibody, IgG1, V domains shown)
# VH: B1 VH with R59A
# VL: B1 VL with D30S, Y33N, Y50H, G51W, G92W, W93Y, W95H
# notes: mAb; IgG1/kappa said of the parent and of selected mAbs; also called IFWB3111
# B15: IFWM3377 (antibody, IgG1, V domains shown)
# VH: B1 VH with R59A
# VL: B1 VL with D30R, S32T, Y33N, Y50H, G51W, W93Y, W95T, L97F
# notes: mAb; IgG1/kappa said of the parent and of selected mAbs; also called IFWB3112
# B16: IFWM3378 (antibody, IgG1, V domains shown)
# VH: B1 VH with R59A
# VL: B1 VL with D30A, S32N, Y33D, Y50H, G51W, G92D, W93Y
# notes: mAb; IgG1/kappa said of the parent and of selected mAbs; also called IFWB3113
# B17: IFWM3407 (antibody, IgG1, V domains shown)
# VH: B1 VH with N103A
# VL: B1 VL with D30R, S32N, Y33N, Y50H, G51W, W93Y, W95T, L97F
# notes: mAb; IgG1/kappa said of the parent and of selected mAbs; also called IFWB3142
# B18: IFWM3409 (antibody, IgG1, V domains shown)
# VH: B1 VH with N103A
# VL: B1 VL
# notes: mAb; IgG1/kappa said of the parent and of selected mAbs; also called IFWB3144
# B19: IFWM3411 (antibody, IgG1, V domains shown)
# VH: B1 VH with N103A
# VL: B1 VL with S32N, Y33N, G51A, W93Y
# notes: mAb; IgG1/kappa said of the parent and of selected mAbs; also called IFWB3146
# B20: IFWM3414 (antibody, IgG1, V domains shown)
# VH: B1 VH with N103A
# VL: B1 VL with D30R, S32N, G51A, W93Y, W95T
# notes: mAb; IgG1/kappa said of the parent and of selected mAbs; also called IFWB3149
# B21: IFWM3415 (antibody, IgG1, V domains shown)
# VH: B1 VH with N103A
# VL: B1 VL with D30S, Y33N, Y50H, G51W, G92W, W93Y, W95H
# notes: mAb; IgG1/kappa said of the parent and of selected mAbs; also called IFWB3150
# B22: IFWM3417 (antibody, IgG1, V domains shown)
# VH: B1 VH with N103A
# VL: B1 VL with D30A, S32N, Y33D, Y50H, G51W, G92D, W93Y
# notes: mAb; IgG1/kappa said of the parent and of selected mAbs; also called IFWB3152
# B23: IFWM3413 (antibody, IgG1, V domains shown)
# VH: B1 VH with N103A
# VL: DIQMTQSPSSLSASVGDRVTITCRASQSINYLNWYQQKPGKAPKLLIYGASSLQSGVPSRFSGSGSGTDFTLTISSLQPEDFATYYCQQSHDWPITFGQGTKVEIK
# notes: mAb; IgG1/kappa said of the parent and of selected mAbs; also called IFWB3148
# B24: IFWM3406 (antibody, IgG1, V domains shown)
# VH: B1 VH with N103A
# VL: B23 VL with Y31N, G49W, S90G, H91Y, W93T, I95F
# notes: mAb; IgG1/kappa said of the parent and of selected mAbs; also called IFWB3141
# Target: IFN-αH2 (human, UniProt P01570 24-189)
# Assay: cell-based or functional assay
row,Binder,"IC50, ISRE assay"
1,B1,0.033 nM
2,B2,0.092 nM
3,B3,0.008 nM
4,B4,0.004 nM
5,B5,9.6 nM
6,B6,0.042 nM

# Target: T2, IFN-αC (human, UniProt P01566 24-189)
# Assay: cell-based or functional assay
row,Binder,"IC50, ISRE assay"
1,B1,0.098 nM
2,B2,0.479 nM
3,B3,0.02 nM
4,B4,0.012 nM
5,B5,53.9 nM
6,B6,0.117 nM

# Target: T3, IFN-αG (human, UniProt P01569 24-189)
# Assay: cell-based or functional assay
row,Binder,"IC50, ISRE assay"
1,B1,0.027 nM
2,B2,0.099 nM
3,B3,0.018 nM
4,B4,0.009 nM
5,B5,12.9 nM
6,B6,0.047 nM

# Target: T1, IFN-αF
# Assay: cell-based or functional assay
row,Binder,"IC50, ISRE assay"
1,B1,0.048 nM
2,B2,0.228 nM
3,B3,0.011 nM
4,B4,0.008 nM
5,B5,16 nM
6,B6,0.062 nM

# Target: T4, human IFN-ω (human, UniProt P05000 24-195)
# T4 construct: Recombinant, HEK293; also called interferon omega
# Assay: ProteOn SPR, cell supernatant;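 note: each binding measurement used just a single antigen concentration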
# Excerpt: (§1) To increase the assay throughput, only one concentration of the individual antigen was used.
row,Binder,Kd
1,B7,0.089 nM
2,B8,0.086 nM
3,B9,0.036 nM
4,B10,0.01 nM
5,B11,0.018 nM
6,B12,0.049 nM
7,B13,0.019 nM
8,B14,0.02 nM
9,B15,0.027 nM
10,B16,0.075 nM
11,B17,0.017 nM
12,B18,0.014 nM
13,B19,0.028 nM
14,B20,0.058 nM
15,B21,0.018 nM
16,B22,0.029 nM
17,B23,0.047 nM
18,B24,0.078 nM

# Target: T5, IFN-α4a (human, UniProt P05014 24-189)
# T5 construct: Recombinant, HEK293; also called IFN-αM1
# Assay: ProteOn SPR, cell supernatant;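 note: each binding measurement used just a single antigen concentration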
# Excerpt: as §1
row,Binder,Kd
1,B7,1.16 nM
2,B8,0.582 nM
3,B9,0.475 nM
4,B10,0.155 nM
5,B11,0.1 nM
6,B12,0.432 nM
7,B13,0.067 nM
8,B14,0.113 nM
9,B15,0.193 nM
10,B16,0.533 nM
11,B17,0.128 nM
12,B18,0.058 nM
13,B19,0.101 nM
14,B20,0.193 nM
15,B21,0.069 nM
16,B22,0.1 nM
17,B23,0.206 nM
18,B24,0.135 nM

# Target: T2, IFN-αC
# Assay: ProteOn SPR, cell supernatant;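 note: each binding measurement used just a single antigen concentration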
# Excerpt: as §1
row,Binder,Kd
1,B7,0.191 nM
2,B8,0.126 nM
3,B9,0.113 nM
4,B10,0.039 nM
5,B11,0.043 nM
6,B12,0.094 nM
7,B13,0.022 nM
8,B14,0.034 nM
9,B15,0.044 nM
10,B16,0.172 nM
11,B17,0.032 nM
12,B18,0.011 nM
13,B19,0.023 nM
14,B20,0.068 nM
15,B21,0.019 nM
16,B22,0.031 nM
17,B23,0.037 nM
18,B24,0.037 nM

# Target: T3, IFN-αG
# Assay: ProteOn SPR, cell supernatant;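 note: each binding measurement used just a single antigen concentration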
# Excerpt: as §1
row,Binder,Kd
1,B7,0.178 nM
2,B8,0.081 nM
3,B9,0.037 nM
4,B10,0.021 nM
5,B11,0.05 nM
6,B12,0.103 nM
7,B13,0.035 nM
8,B14,0.048 nM
9,B15,0.038 nM
10,B16,0.15 nM
11,B17,0.027 nM
12,B18,0.005 nM
13,B19,0.035 nM
14,B20,0.033 nM
15,B21,0.026 nM
16,B22,0.03 nM
17,B23,0.044 nM
18,B24,0.037 nM

# Target: T6, IFN-αWA (human, UniProt P05015 24-189)
# T6 construct: Recombinant, HEK293; also called IFN-α16
# Assay: ProteOn SPR, cell supernatant;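 note: each binding measurement used just a single antigen concentration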
# Excerpt: as §1
row,Binder,Kd
1,B7,0.493 nM
2,B8,0.193 nM
3,B9,0.124 nM
4,B10,0.041 nM
5,B11,0.064 nM
6,B12,0.272 nM
7,B13,0.031 nM
8,B14,0.062 nM
9,B15,0.12 nM
10,B16,0.248 nM
11,B17,0.06 nM
12,B18,0.025 nM
13,B19,0.087 nM
14,B20,0.07 nM
15,B21,0.044 nM
16,B22,0.059 nM
17,B23,0.085 nM
18,B24,0.063 nM

# Target: T7, IFN-αJ1 (human, UniProt P01567 24-189)
# T7 construct: Recombinant, HEK293; also called IFN-α7
# Assay: ProteOn SPR, cell supernatant;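 note: each binding measurement used just a single antigen concentration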
# Excerpt: as §1
row,Binder,Kd
1,B7,0.656 nM
2,B8,0.399 nM
3,B9,0.299 nM
4,B10,0.225 nM
5,B11,0.125 nM
6,B12,0.69 nM
7,B13,0.045 nM
8,B14,0.14 nM
9,B15,0.192 nM
10,B16,0.496 nM
11,B17,0.058 nM
12,B18,0.041 nM
13,B19,0.151 nM
14,B20,0.174 nM
15,B21,0.051 nM
16,B22,0.07 nM
17,B23,0.15 nM
18,B24,0.119 nM

# Target: T1, IFN-αF
# Assay: ProteOn SPR, cell supernatant
# Excerpt: as §1
row,Binder,Kd
1,B7,0.229 nM
2,B8,0.158 nM
3,B9,0.118 nM
4,B10,0.039 nM
5,B11,0.05 nM
6,B12,0.116 nM
7,B13,0.023 nM
8,B14,0.039 nM
9,B15,0.051 nM
10,B16,0.168 nM
11,B17,0.033 nM
12,B18,0.009 nM
13,B19,0.037 nM
14,B20,0.101 nM
15,B21,0.026 nM
16,B22,0.039 nM
17,B23,0.033 nM
18,B24,0.037 nM
